Measurements as given in patent US20250333486A1, “Anti-HSP90 alpha antibody and uses thereof” (NATIONAL HEALTH RESEARCH INSTITUTES, priority 2021, published 2025).

Legend:
[1] = Pharmacokinetic assay in male mice; settings: IV single dose 10 mg/kg
Description: Food and water were available ad libitum at all times. For determination of the serum exposure levels of HH01 antibody, blood samples were collected at Day-0.04, 0.08, 0.25, 1, 2, 3, 7, 9, 14, 16, 18, 21, 23, 25, 35, 42, 49, 56, and 63 post administration.

PANC-1 cells = test: Transwell invasion assay, rHSP90α-induced PANC-1 invasion; type: cell-based, human; settings: 15 μg/ml rHSP90α plus 10 μg/ml antibody
Description: In a 37° C. and 5% CO2 humidified incubator, cancer cells were subjected to serum starvation in 0.5% FBS-containing medium for 16 h, and then added […] After another 24 h, the treated cells were harvested as aliquots (1×10^5 cells per aliquot) in 0.5% FBS-containing culture medium, and then each aliquot was seeded into a top chamber of Transwell inserts pre-coated with 5-fold diluted Matrigel (BD Biosciences). Cells were allowed 16 h to invade through the Matrigel toward the bottom chambers containing culture medium plus 10% FBS. The filters of the Transwell inserts were then fixed and stained with Giemsa. Invasive cells on the lower side of filters were photographed using the Axiovert S100/AxioCam HR microscope system (Carl Zeiss, Oberkochen, Germany) and further quantified by the Image-Pro Plus software (Media Cybernetics, Inc., Silver Spring, MD, USA).

[2] = Mouse splenic enlargement; settings: in vivo
SW620 and PANC-1 cells = test: Transwell invasion assay, rHSP90α-induced cancer cell invasion; type: cell-based, human; settings: conclusion statement
Description: In a 37° C. and 5% CO2 humidified incubator, cancer cells were subjected to serum starvation in 0.5% FBS-containing medium for 16 h, and then added with PBS or 15 μg/ml of rHSP90α in the absence or presence of 10 μg/ml of control IgG or the tested anti-HSP90α antibody. After another 24 h, the treated cells were harvested as aliquots (1×10^5 cells per aliquot) in 0.5% FBS-containing culture medium, and then each aliquot was seeded into a top chamber of Transwell inserts pre-coated with 5-fold diluted Matrigel (BD Biosciences). Cells were allowed 16 h to invade through the Matrigel toward the bottom chambers containing culture medium plus 10% FBS. The filters of the Transwell inserts were then fixed and stained with Giemsa. Invasive cells on the lower side of filters were photographed using the Axiovert S100/AxioCam HR microscope system (Carl Zeiss, Oberkochen, Germany) and further quantified by the Image-Pro Plus software (Media Cybernetics, Inc., Silver Spring, MD, USA).

[3] = tested on: Panc 02 plus rHSP90α-treated BMDM cell grafts; test: Therapeutic efficacy in M2-macrophage-exacerbated mouse PDAC model; type: in vivo
Description: Mouse experiments were performed with the permission of the Institutional Animal Care and Use Committee of National Health Research Institutes (NHRI-IACUC-106031-A, 109022-M2-S02, and 109196-A). To establish a desmoplastic tumor transplant model, C57BL/6 mice at 12 weeks of age were subcutaneously inoculated with a mix of Panc 02 cells and EndoMT-derived CAFs (i.e. OPN-treated 3B-11 cells). See Fan C S, Chen L L, Hsu T A, et al. Endothelial-mesenchymal transition harnesses HSP90α-secreting M2-macrophages to exacerbate pancreatic ductal adenocarcinoma. J Hematol Oncol 2019;12:138; and Chua K V, Fan C S, Chen L L, Chen C C, Hsieh S C, Huang T S. Octyl gallate induces pancreatic ductal adenocarcinoma cell apoptosis and suppresses endothelial-mesenchymal transition-promoted M2-macrophages, HSP90α secretion, and tumor growth. Cells 2020;9(1):91. Sizes of developing tumors were superficially measured with a Vernier caliper, and tumor volumes were calculated with the formula ½×length×width^2. Real tumors were weighed when mice were sacrificed. To establish a desmoplastic tumor transplant model in humanized mice, NOD-SCID IL2R^null (ASID) mice transplanted with human hematopoietic stem cells (hHSC) were subcutaneously inoculated with a mix of PANC-1 cells and OPN-treated HUVECs. The employed hHSC-transplanted ASID mice were produced from the National Laboratory Animal Center (Taipei, Taiwan) and all contained human CD45^+ cell levels more than 38% of total lymphocytes. To establish an M2-macrophage-exacerbated mouse PDAC model, C57BL/6 mice were subcutaneously inoculated with a mix of Panc 02 cells and rHSP90α-treated BMDMs. Additionally, LSL-KrasG12D/Pdx1-Cre transgenic mice were adopted as a spontaneously PDAC-developing mouse model to evaluate the therapeutic efficacy of HH01 antibody. LSL-KrasG12D and Pdx1-Cre breeder mice were obtained from the Mouse Models of Human Cancers Consortium Repository of the National Cancer Institute (Frederick, Maryland, USA). LSL-KrasG12D mice were crossed with Pdx1-Cre mice to generate LSL-KrasG12D/Pdx1-Cre mice.
For assaying the HSP90α-binding activities of the prepared antibodies, 96-well plates were coated with 12.5 ng/ml of rHSP90α in the capture buffer (BioLegend, San Diego, CA, USA) by overnight incubation at 4° C. The coated plates were washed twice with PBST and then blocked with PBST plus 3% bovine serum albumin (BSA). The prepared antibodies were applied and incubated 2 h at room temperature. After three washes with PBST, horseradish peroxidase-conjugated secondary antibody was added and incubated at 37° C. for another 1 h. After three washes, 0.3 mg/ml of 3,3′,5,5′-tetramethylbenzidine in 0.015% H2O2 was added into each well and incubated in the dark at room temperature for 10 min. The reactions were stopped by the addition of 0.5 M H2SO4, and OD450 values were measured by an Infinite M200 microplate reader (TECAN, Männedorf, Switzerland). Additionally, the immunoglobulin (IgG) isotype characterization of anti-HSP90α antibodies was performed by using the Mouse Ig Isotyping ELISA Ready-Set-Go!™ Kit (eBioscience™, Thermo Fisher Scientific, Waltham, MA, USA). The ELISA protocol was also used to assay the secreted HSP90α levels of mouse serum samples as described previously. See Chen J S, Hsu Y M, Chen C C, Chen L L, Lee C C, Huang T S. Secreted heat shock protein 90α induces colorectal cancer cell invasion through CD91/LRP-1 and NF-κB-mediated integrin αV expression. J Biol Chem 2010;285(33):25458-66.
Mouse tissue sections with a 4-μm thickness were deparaffinized by xylene and rehydrated in graded ethanol dilutions. Antigen retrieval was performed by heating the sections for 15 min in 10 mM of citrate buffer, pH 6.0, under high pressure. The endogenous peroxidase activity was blocked by 0.3% H2O2. Before staining, the sections were blocked 30 min with PBS plus 3% BSA at room temperature in a humidified chamber. […]

[4] = 5 mg/kg from Day-27, second dose after 7 days
[5] = immunohistofluorescent staining of tumor tissues

B1: HH01: humanized anti-HSP90α IgG1 antibody, mutant of Clone-2-chimera; VH SEQ ID NO: 12, VL SEQ ID NO: 17 (antibody, V domains shown)
VH: EVQLVESGGGLVQPGGSLRLSCAASGFTFKTYAMNWVRQAPGQGLEWVARIRSKSRNYATYYADSVKDRFTISRDDSKNQFYLQMNNLRTEDTAVYYCVVGGSGFDYWGQGTTLTVSS
VL: DVVMTQTPLSLPVSLGDQASISCRSSQSIVHSNGNTYLEWYLQKPGQSPQLLIYKVSNRFSGVPDRFSGSGSGTDFTLTISSVEAEDLGVYYCFQGSHVPWTFGGGTKLEIK
modifications: Heavy chain variable region; Light chain variable region
With B1 the clearance rate [1] was 4.3 mL/day/kg, the “volume in steady state” value [1] was 80 mL/kg and the “suppression of rHSP90α-induced invasiveness of PANC-1 cells” value (PANC-1 cells) was “superior to Clone-2-hB, Clone-2-hC, and their parental Clone-2”. The mouse splenic enlargement [2] was “will not cause mouse splenic enlargement”, the “invasive activities of pancreatic adenocarcinoma and colorectal cancer cell lines” value (SW620 and PANC-1 cells) was “potently suppresses” and the “elevation of serum HSP90α levels” value [3, 4] was “significantly suppressed”. The tumor volume [3, 4] was “drastic tumor shrinkage upon HH01 treatment was observed immediately after 3 days”, the “tumors on Day-42” value [3, 4] was “shrank significantly” and the “CD4^+TNF-α^+ (effective T) cells” value [3, 5] was “both increased”. For the same molecule, the “CD8^+TNF-α^+ (cytotoxic T) cells” value [3, 5] was “both increased”, the “F4/80^+Arginase1^+ (M2) cells” value [3, 5] was “decrease” and the “F4/80^+iNOS^+ (M1) cells” value [3, 5] was “increase”. For the same molecule, the “CD4^+ and CD8^+ cell levels in tumor (immunohistochemistry)” value ([3]; tumor samples) was “effectively restored” and the “M2-macrophages in tumor (CD163, CD204 immunohistochemistry)” value ([3]; tumor samples) was “M2-macrophage reduction”.
